The results in this text go back to patent publication US20240270821A1, “GIP/GLP1/GCG TRI-RECEPTOR AGONISTS AND USES THEREOF” (priority 2023, published 2024).

Substitutions are numbered along the chain they refer to.

Experiment in all cases: cell-based or functional assay
One assay deals with hGLP-1R (Homo sapiens, UniProt P43220).
For assay [1], the target named is human glucagon receptor (human) (UniProt P47871).
Assay [2] deals with T1, human GIP receptor (human) (UniProt P48546).
T1 sequence (looked up): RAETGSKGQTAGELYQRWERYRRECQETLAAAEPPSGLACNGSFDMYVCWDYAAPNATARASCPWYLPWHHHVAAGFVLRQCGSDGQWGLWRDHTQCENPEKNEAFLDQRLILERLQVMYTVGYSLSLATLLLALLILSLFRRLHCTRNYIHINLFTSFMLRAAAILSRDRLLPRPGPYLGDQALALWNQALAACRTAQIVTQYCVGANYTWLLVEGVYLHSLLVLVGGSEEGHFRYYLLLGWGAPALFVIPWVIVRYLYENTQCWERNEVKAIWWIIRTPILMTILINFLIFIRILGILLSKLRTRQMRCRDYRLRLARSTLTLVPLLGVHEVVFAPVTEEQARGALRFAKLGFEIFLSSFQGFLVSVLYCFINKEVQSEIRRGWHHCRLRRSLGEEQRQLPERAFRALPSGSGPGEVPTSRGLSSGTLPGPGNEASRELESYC

Sequence of hGLP-1R (P43220 24-463): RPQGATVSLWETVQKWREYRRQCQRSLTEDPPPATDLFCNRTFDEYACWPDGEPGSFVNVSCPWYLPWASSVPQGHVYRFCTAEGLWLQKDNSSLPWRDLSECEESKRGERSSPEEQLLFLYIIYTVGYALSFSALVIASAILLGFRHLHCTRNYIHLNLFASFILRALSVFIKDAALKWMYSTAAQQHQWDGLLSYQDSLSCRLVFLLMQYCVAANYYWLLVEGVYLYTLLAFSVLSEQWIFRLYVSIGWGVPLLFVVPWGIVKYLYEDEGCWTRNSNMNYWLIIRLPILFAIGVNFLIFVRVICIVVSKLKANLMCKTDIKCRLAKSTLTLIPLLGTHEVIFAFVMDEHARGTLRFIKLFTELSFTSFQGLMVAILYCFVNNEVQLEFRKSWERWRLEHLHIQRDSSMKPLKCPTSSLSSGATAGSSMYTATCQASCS
Sequence of human glucagon receptor (human) (P47871 26-477): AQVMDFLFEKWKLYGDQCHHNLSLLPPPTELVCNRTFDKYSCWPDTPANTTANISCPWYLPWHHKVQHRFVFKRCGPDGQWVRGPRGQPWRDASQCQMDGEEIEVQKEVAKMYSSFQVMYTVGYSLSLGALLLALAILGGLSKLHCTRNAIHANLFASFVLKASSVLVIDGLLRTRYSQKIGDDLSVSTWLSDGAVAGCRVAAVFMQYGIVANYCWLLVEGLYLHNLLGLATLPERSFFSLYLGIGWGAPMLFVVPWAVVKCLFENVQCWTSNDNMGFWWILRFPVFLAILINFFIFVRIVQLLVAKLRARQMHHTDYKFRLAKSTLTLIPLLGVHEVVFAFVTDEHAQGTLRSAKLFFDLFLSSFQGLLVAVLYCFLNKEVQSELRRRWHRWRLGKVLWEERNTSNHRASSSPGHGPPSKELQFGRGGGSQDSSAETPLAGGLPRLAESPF

B1: Example 650 (peptide)
chain: YXQGTXTSDXSIXLDKKAQXXFIEYLAEGGPSSGEPPPEGSEE
modifications: synthetic construct; SITE 2: note = 2-Aminoisobutyric Acid; SITE 6: note = alpha-methyl-2-fluoro-L-phenylalanine; SITE 10: note = 3-(4-Pyridyl)-L-alanine; SITE 13: note = alpha-methyl-leucine; SITE 17: note = Lysine is chemically modified through conjugation of the epsilon-amino group of the Lysine
As to B1, the cAMP Rel EC50 (1% HSA) is 31.4 nM with hGLP-1R, 574 nM in assay [1] and 3.1 nM in assay [2].

B2: Example 656 (peptide)
chain: B1 chain with S11X, K16X, Y25X, A27Q, S41T
modifications: acyl linker with epsilon-Lys; synthetic construct; SITE 2: note = 2-Aminoisobutyric Acid; SITE 6: note = alpha-methyl-2-fluoro-L-phenylalanine; SITE 10: note = 3-(4-Pyridyl)-L-alanine; SITE 11: note = alpha-methyl-L-serine; SITE 13: note = alpha-methyl-leucine; SITE 16: note = L-ornithine; SITE 17: note = Lysine is chemically mo
Turning to B2, the cAMP Rel EC50 (1% HSA) is 119 nM in the assay with hGLP-1R, 662 nM in assay [1] and 7.13 nM in assay [2].

B3: Example 653 (peptide)
chain: B1 chain with A27Q
modifications: synthetic construct; SITE 2: note = 2-Aminoisobutyric Acid; SITE 6: note = alpha-methyl-2-fluoro-L-phenylalanine; SITE 10: note = 3-(4-Pyridyl)-L-alanine; SITE 13: note = alpha-methyl-leucine; SITE 17: note = Lysine is chemically modified through conjugation of the epsilon-amino group of the Lysine
Turning to B3, the cAMP Rel EC50 (1% HSA) with hGLP-1R is 25 nM; in assay [1], 542 nM; in assay [2], 1.38 nM.

B4: Example 652 (peptide)
chain: B1 chain with A27T
modifications: synthetic construct; SITE 2: note = 2-Aminoisobutyric Acid; SITE 6: note = alpha-methyl-2-fluoro-L-phenylalanine; SITE 10: note = 3-(4-Pyridyl)-L-alanine; SITE 13: note = alpha-methyl-leucine; SITE 17: note = Lysine is chemically modified through conjugation of the epsilon-amino group of the Lysine
Regarding B4, the cAMP Rel EC50 (1% HSA) with hGLP-1R came out at 26.8 nM; in assay [1], 764 nM; in assay [2], 1.92 nM.

B5: Example 651 (peptide)
chain: B1 chain with A27S
modifications: synthetic construct; SITE 2: note = 2-Aminoisobutyric Acid; SITE 6: note = alpha-methyl-2-fluoro-L-phenylalanine; SITE 10: note = 3-(4-Pyridyl)-L-alanine; SITE 13: note = alpha-methyl-leucine; SITE 17: note = Lysine is chemically modified through conjugation of the epsilon-amino group of the Lysine
For B5, the cAMP Rel EC50 (1% HSA) came out at 53.9 nM in the assay with hGLP-1R, 639 nM in assay [1] and 6.3 nM in assay [2].

B6: Example 643 (peptide)
chain: YXQGTXTSDXSIXLDXKAQXEFIEXLQEGGPSSGAPPPSGS
modifications: non-natural residues, acylated Lys (AEEA-γGlu-C18 diacid), C-terminal amide; synthetic construct; SITE 2: note = 2-Aminoisobutyric Acid; SITE 6: note = alpha-methyl-2-fluoro-L-phenylalanine; SITE 10: note = 3-(4-Pyridyl)-L-alanine; SITE 13: note = alpha-methyl-leucine; SITE 16: note = L-ornithine; SITE 17: note = Lysine is chemically modified through conjugation of the epsil
B6: the Relative cAMP EC50 with hGLP-1R is 0.741 nM; in assay [1], 16 nM; in assay [2], 0.0223 nM. Besides, the cAMP Rel EC50 (in the presence of 1% HSA) was 60.1 nM with hGLP-1R, 1170 nM in assay [1] and 1.61 nM in assay [2].

B7: Example 644 (peptide)
chain: B6 chain with Q27I, A35E
modifications: non-natural residues; lipidated Lys AEEA-γGlu-C18 diacid; C-term amide; synthetic construct; SITE 2: note = 2-Aminoisobutyric Acid; SITE 6: note = alpha-methyl-2-fluoro-L-phenylalanine; SITE 10: note = 3-(4-Pyridyl)-L-alanine; SITE 13: note = alpha-methyl-leucine; SITE 16: note = L-ornithine; SITE 17: note = Lysine is chemically modified through conjugation of the epsil
Consider B7, for which the Relative cAMP EC50 with hGLP-1R was 0.309 nM; in assay [1], 5.91 nM; in assay [2], 0.00649 nM. The cAMP Rel EC50 (in the presence of 1% HSA) with hGLP-1R is 34.3 nM; in assay [1], 626 nM; in assay [2], 0.601 nM.

B8: Example 646 (peptide)
chain: B6 chain with Q27A
modifications: Aib, αMeF(2F), 4Pal, Orn, Me4Pal, αMeY; K (γGlu)2-C18 diacid; amide; synthetic construct; SITE 2: note = 2-Aminoisobutyric Acid; SITE 6: note = alpha-methyl-2-fluoro-L-phenylalanine; SITE 10: note = 3-(4-Pyridyl)-L-alanine; SITE 13: note = alpha-methyl-leucine; SITE 16: note = L-ornithine; SITE 17: note = Lysine is chemically modified through conjugation of the epsil
Regarding B8, the values for the Relative cAMP EC50 (in the assay with hGLP-1R; in assay [1]; in assay [2]) were 2.58 nM, 23.1 nM and 0.0336 nM, respectively. In addition, the cAMP Rel EC50 (in the presence of 1% HSA) is 90.5 nM with hGLP-1R, 1260 nM in assay [1] and 1.09 nM in assay [2].

B9: Example 682 (peptide)
chain: B6 chain with E21X, Q27I, A35E, S41E
modifications: synthetic construct; SITE 2: note = 2-Aminoisobutyric Acid; SITE 6: note = alpha-methyl-2-fluoro-L-phenylalanine; SITE 10: note = 3-(4-Pyridyl)-L-alanine; SITE 13: note = alpha-methyl-leucine; SITE 16: note = L-ornithine; SITE 17: note = Lysine is chemically modified through conjugation of the epsil
With B9, the cAMP Rel EC50 (1% HSA) in the assay with hGLP-1R amounted to 14 nM; in assay [1], 127 nM; in assay [2], 0.415 nM.

B10: Example 672 (peptide)
chain: B6 chain with S11X, Q19A, Q27L
modifications: synthetic construct; SITE 2: note = 2-Aminoisobutyric Acid; SITE 6: note = alpha-methyl-2-fluoro-L-phenylalanine; SITE 10: note = 3-(4-Pyridyl)-L-alanine; SITE 11: note = alpha-methyl-L-serine; SITE 13: note = alpha-methyl-leucine; SITE 16: note = L-ornithine; SITE 17: note = Lysine is chemically mo
In the case of B10, the cAMP Rel EC50 (1% HSA) worked out at 49.4 nM with hGLP-1R, 162 nM in assay [1] and 1.53 nM in assay [2].

B11: Example 693 (peptide)
chain: B6 chain with S11X, Q19A, Q27V
modifications: synthetic construct; SITE 2: note = 2-Aminoisobutyric Acid; SITE 6: note = alpha-methyl-2-fluoro-L-phenylalanine; SITE 10: note = 3-(4-Pyridyl)-L-alanine; SITE 11: note = alpha-methyl-L-serine; SITE 13: note = alpha-methyl-leucine; SITE 16: note = L-ornithine; SITE 17: note = Lysine is chemically mo
In the case of B11, the cAMP Rel EC50 (1% HSA) came to 18 nM in the assay with hGLP-1R, 304 nM in assay [1] and 1.1 nM in assay [2].

B12: Example 645 (peptide)
chain: B6 chain with Q27L, A35E
modifications: non-natural residues; lipidated Lys; C-terminal amide; synthetic construct; SITE 2: note = 2-Aminoisobutyric Acid; SITE 6: note = alpha-methyl-2-fluoro-L-phenylalanine; SITE 10: note = 3-(4-Pyridyl)-L-alanine; SITE 13: note = alpha-methyl-leucine; SITE 16: note = L-ornithine; SITE 17: note = Lysine is chemically modified through conjugation of the epsil
With B12, the Relative cAMP EC50 in the assay with hGLP-1R is 0.596 nM; in assay [1], 3.25 nM; in assay [2], 0.00724 nM. Moreover, the cAMP Rel EC50 (in the presence of 1% HSA) was found to be 76.3 nM in the assay with hGLP-1R, 398 nM in assay [1] and 0.863 nM in assay [2].

B13: Example 695 (peptide)
chain: B6 chain with S11X, Q19A, Q27V, A35E
modifications: synthetic construct; SITE 2: note = 2-Aminoisobutyric Acid; SITE 6: note = alpha-methyl-2-fluoro-L-phenylalanine; SITE 10: note = 3-(4-Pyridyl)-L-alanine; SITE 11: note = alpha-methyl-L-serine; SITE 13: note = alpha-methyl-leucine; SITE 16: note = L-ornithine; SITE 17: note = Lysine is chemically mo
Take B13: the cAMP Rel EC50 (1% HSA) amounted to 19.5 nM in the assay with hGLP-1R, 164 nM in assay [1] and 0.772 nM in assay [2].

B14: Example 660 (peptide)
chain: YXQGTXTSDXSILLDKKAQXAFIEYLEEGGPSSGAPPPEGTGE
modifications: synthetic construct; SITE 2: note = 2-Aminoisobutyric Acid; SITE 6: note = alpha-methyl-2-fluoro-L-phenylalanine; SITE 10: note = 3-(4-Pyridyl)-L-alanine; SITE 17: note = Lysine is chemically modified through conjugation of the epsilon-amino group of the Lysine side chain with (gamma-Glu)2-CO-(CH2)1
B14: the cAMP Rel EC50 (1% HSA) is 76.9 nM in the assay with hGLP-1R, 455 nM in assay [1] and 4.64 nM in assay [2].
